Assay results from EP4624493A1 (Jiangsu Hengrui Pharmaceuticals Co., Ltd., dated 2025).

Target: T1, human HGFR protein extracellular domain with the His tag (human, UniProt P08581 25-932)
T1 construct: also called HGFR-His
Assay: SPR Biacore T200, comparison of KD values

T1 sequence (P08581 other isoform, or with tags, fused parts or gaps): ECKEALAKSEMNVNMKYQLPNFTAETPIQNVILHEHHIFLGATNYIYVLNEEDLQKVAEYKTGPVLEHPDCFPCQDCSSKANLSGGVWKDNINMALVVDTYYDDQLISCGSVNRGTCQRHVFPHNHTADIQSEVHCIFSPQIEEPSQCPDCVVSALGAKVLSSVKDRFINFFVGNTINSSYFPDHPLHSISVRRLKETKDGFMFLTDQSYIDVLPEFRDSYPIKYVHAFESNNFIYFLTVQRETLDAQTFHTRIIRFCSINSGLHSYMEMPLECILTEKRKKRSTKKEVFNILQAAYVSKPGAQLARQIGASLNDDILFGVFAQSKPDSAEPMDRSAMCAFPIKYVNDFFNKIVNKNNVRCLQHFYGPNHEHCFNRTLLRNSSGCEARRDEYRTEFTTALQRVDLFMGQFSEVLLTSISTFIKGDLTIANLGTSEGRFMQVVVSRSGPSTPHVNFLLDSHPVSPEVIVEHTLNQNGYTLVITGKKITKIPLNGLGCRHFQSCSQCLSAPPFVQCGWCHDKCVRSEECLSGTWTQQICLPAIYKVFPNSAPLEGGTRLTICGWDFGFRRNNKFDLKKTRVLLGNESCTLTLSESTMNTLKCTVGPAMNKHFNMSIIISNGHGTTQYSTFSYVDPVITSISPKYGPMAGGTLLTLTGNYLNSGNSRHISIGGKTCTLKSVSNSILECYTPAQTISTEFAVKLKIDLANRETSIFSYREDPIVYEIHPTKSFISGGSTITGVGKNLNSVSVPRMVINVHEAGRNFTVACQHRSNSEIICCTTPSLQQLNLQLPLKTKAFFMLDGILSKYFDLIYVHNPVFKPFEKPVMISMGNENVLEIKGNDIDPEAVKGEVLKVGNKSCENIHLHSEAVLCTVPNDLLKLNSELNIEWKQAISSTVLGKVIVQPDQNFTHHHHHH

fold affinity against the parent antibody Ab10: ≥ 4 fold
B1: Ab10.1, mutant antibody of Ab10 (anti-HGFR) (antibody, V domains shown)
VH: QVQLVESGGGVVQPGRSLRLSCAASGFSLSDYGVHWVRQAPGKGLEWLAVIWSGGSTNYADAFVSRLTISKDNSKNTVYLQMNSLRAEDTAVYYCARNHDNPYIYAMDYWGQGTTVTVSS
VL: DIVLTQSPDSLAVSLGERATINCRADKSVSTSTYNYLHWYQQKPGQPPKLLIYRGSFLATGVPDRFSGSGSGTDFTLTISSLQAEDVAVYYCQHSRDLPPTFGQGTKLEIK
